Assay results published in the supplement of paper PMC10567573.

B1: APBB1IP (parent)
chain: FNYSVGFKDLNESLNALEDQDLDA
B2: NP_015628.1 (parent)
chain: EQRNSRWNTVLRAVKAKTHHLEP

Variants of: B1
Experiment: protein stability index of a GFP-peptide fusion (GPS, HEK-293T) (PSI 1-6); higher = more stable
Details: c terminus: a fixed tail appended

Variant	protein stability index
FNYSVGFKDLNESLNALEDQDLDE	4.91
FNDSVGFKDLNESLNALEDQDLDA	4.89
FNKSVGFKDLNESLNALEDQDLDA	5.17
FNESVGFKDLNESLNALEDQDLDA	5.43
FNISVGFKDLNESLNALEDQDLDA	4.21
FNNSVGFKDLNESLNALEDQDLDA	5.12
FNRSVGFKDLNESLNALEDQDLDA	5.36
FNCSVGFKDLNESLNALEDQDLDA	4.74
FNYSVGFPDLNESLNALEDQDLDA	4.79
FNYSVGFGDLNESLNALEDQDLDA	4.65
FNYSVGFTDLNESLNALEDQDLDA	3.54
FNYSVGFHDLNESLNALEDQDLDA	3.81
FNYSVGFLDLNESLNALEDQDLDA	3.17
FNYSVGFYDLNESLNALEDQDLDA	3.58
FNYSVGFFDLNESLNALEDQDLDA	2.99
FNYSVGFKDLNESLNWLEDQDLDA	3.41
FNYSVGFKDLNESLNHLEDQDLDA	4.37
FNYSVGFKDLNESLNSLEDQDLDA	4.19
FNYSVGFKDLNESLNGLEDQDLDA	3.94

Variant	protein stability index
FNYSVGFKDLNESLNELEDQDLDA	5.02
FNYSVGFKDLNESLNCLEDQDLDA	4.47
FNYSVGVKDLNESLNALEDQDLDA	4.92
FNYSVGRKDLNESLNALEDQDLDA	5.71
FNYSVGTKDLNESLNALEDQDLDA	5.27
FNYSVGYKDLNESLNALEDQDLDA	4.55
FNYSVGFKDLNESLNALEDKDLDA	4.2
FNYSVGFKDLNESLNALEDGDLDA	4.57
FNYSVGFKDLNESLNALEDADLDA	4.42
FNYSVGFKDLNESLNALEDPDLDA	3.97
FNYSVGFKDLNESLNALEDMDLDA	3.7
FNYSVGFKDLNESNNALEDQDLDA	5.06
FNYSVGFKDLNESSNALEDQDLDA	4.47
FNYSVGFKDLNESMNALEDQDLDA	4.61
FNYSVGFKDLNESTNALEDQDLDA	4.98
FNYSVGFKDLNESYNALEDQDLDA	4.49
FNYSVGFKDLNESQNALEDQDLDA	4.88
FNYSVGFKDLNESPNALEDQDLDA	4.76
FNYSVGFKDLNESWNALEDQDLDA	4.05

Variant	protein stability index
FNYSVGFKDLNESKNALEDQDLDA	4.48
FNYSVGFKDLNESLNALEHQDLDA	3.7
FNYSVGFKDLNESLNALEKQDLDA	4.5
FNYSVGFKDLNESLNALEGQDLDA	4.36
FNYSVGFKDLNESLNALETQDLDA	3.86
FNYSVGFKDLNESLNALEQQDLDA	3.83
FNYSVGFKDLNESLNALEIQDLDA	3.86
FNYSVGFKDLNESLNALEFQDLDA	3
FNYSVGFKDLNESLNALEDQDCDA	4.62
FNYSVGFKDLNESLNALEDQDSDA	4.76
FNYSVGFKDLNESLNALEDQDRDA	4.5
FNYSVGFKDLNESLNALEDQDVDA	4.6
FNYSVGFKDLNESLNALEDQDEDA	5.45
FNYSVGFKDLNESLNALEDQDPDA	4.92
FNYSYGFKDLNESLNALEDQDLDA	4.09
FNYSCGFKDLNESLNALEDQDLDA	4.08
FNYSHGFKDLNESLNALEDQDLDA	4.76
FNYSIGFKDLNESLNALEDQDLDA	4.38
FNYSPGFKDLNESLNALEDQDLDA	4.99

Variants of: B2
Experiment: as above
Details: c terminus: native

Variant	protein stability index
EQRNSRWNTVLRAVKAKTHHYEP	3.81
EQRNSRWNTVLRAVKAKTHHWEP	4.04
EQRNSRWNTVLRAVKAKTHHVEP	4.29
EQRNSRWNTVLRAVKAKTHHLEF	4.51
EQRNSRWNTVLRAVKAKTHHLEM	4.09
EQRNSRWNTVLRAVKAKTHHLEL	4.39
EQRNSRWNTVLRAVKAKTHHLEH	4.88
EQRNSRWNTVLRAVKAKTHHLEG	4.74
EQRNSRWNTVLRAVKAKTHHLED	4.92
EQRNSRWNTVLRAVKAKTHHLEN	4.98
EQRNSRWNTVLRAVKAKTHHLEQ	5.08
EQRNSRWNTVLRAVKAKTHHLEY	4.4
EQRNSRWNTVLRAVKAKTHHLEI	4.19
EQRNSRWNTVLRAVKAKTHHLEK	5.17
EQRNSRWNTVLRAVKAKTHHLER	3.9
EQRNSRWNTVLRAVKAKTHHLEV	4.13
EQRNSRWNTVLRAVKAKTHHLEA	4.32
EQRNSRWNTVLRAVKAKTHHLEE	3.95
EQRNSRWNTVLRAVKAKTHHLET	4.13

Variant	protein stability index
EQRNSRWNTVLRAVKAKTHHLFP	3.55
EQRNSRWNTVLRAVKAKTHHLVP	3.49
EQRNSRWNTVLRAVKAKTHHLGP	3.09
EQRNSRWNTVLRAVKAKTHHLHP	3.45
EQRNSRWNTVLRAVKAKTHHLKP	4.85
EQRNSRWNTVLRAVKAKTHHLAP	2.87
EQRNSRWNTVLRAVKAKTHHLWP	3.6
EQRNSRWNTVLRAVKAKTHHLMP	2.84
EQRNSRWNTVLRAVKAKTHHLCP	2.63
EQRNSRWNTVLRAVKAKTHHLTP	3.23
EQRNSRWNTVLRAVKAKTHHLYP	3.91
EQRNSRWNTVLRAVKAKTHHLLP	3.02
EQRNSRWNTVLRAVKAKTHHLNP	4.48
EQRNSRWNTVLRAVKAKTHHLDP	3.21
EQRNSRWNTVLRAVKAKTHHLPP	4.21
EQRNSRWNTVLRAVKAKTHHLIP	2.45
EQRNSRWNTVLRAVKAKTHHLRP	2.26
EQRNSRWNTVLRAVKAKTHHLQP	3.28
EQRNSRWNTVLRAVKAKTHHLSP	3.09
